Drawing on publication PMC6235402, “Paired Immunoglobulin-like Type 2 Receptor Alpha G78R variant alters ligand binding and confers protection to Alzheimer's disease” (PLoS Genetics, 2018), this text covers percent of G78 PILRA binding, Kd and kon for 2 molecules.

Experiment [1] has as its target PILRA R78 (AD protective) variant, G78R (rs1859788), full length (human) (UniProt Q9UKJ1). The experiment in a line: flow cytometry on cells; 293T cells transfected with full-length PILRA variants, 48 h; incubated with soluble NPDC1-mFc at 50 ug/ml for 30 min on ice; anti-PILRA (APC) and anti-mouse IgG2a (FITC); percent of double-positive cells relative to G78 PILRA (100%).

Experiment [2] has as its target PILRA F76A, full length (human) (UniProt Q9UKJ1). Described as above.
In experiment [3] the target is PILRA R72A, full length (human) (UniProt Q9UKJ1). Described as above.
PILRA R72A, full length (human), sequence (Q9UKJ1 20-303 R72A): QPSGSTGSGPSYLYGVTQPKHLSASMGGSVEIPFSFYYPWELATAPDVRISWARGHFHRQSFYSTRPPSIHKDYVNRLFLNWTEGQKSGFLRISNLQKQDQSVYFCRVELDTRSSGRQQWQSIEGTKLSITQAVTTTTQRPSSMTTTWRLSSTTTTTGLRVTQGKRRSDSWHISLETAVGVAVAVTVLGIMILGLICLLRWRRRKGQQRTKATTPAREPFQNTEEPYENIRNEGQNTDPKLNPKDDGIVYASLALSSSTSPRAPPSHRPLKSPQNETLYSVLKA
Experiment [4] has as its target PILRA S80G, full length (human) (UniProt Q9UKJ1). The experiment is described as above.
In experiment [5] the target is PILRA R78 (AD protective) variant, G78R (rs1859788), full length (human) (UniProt Q9UKJ1). The experiment is described as above. The source holds these as a separate data set.
PILRA R78 (AD protective) variant, G78R (rs1859788), full length (human), sequence (Q9UKJ1 20-303, stated change not applied): as the sequence (Q9UKJ1 20-303 R72A) above, with A53R counted along it
The target of experiment [6] is PILRA S141A, full length (human) (UniProt Q9UKJ1). The experiment is described as above.
PILRA S141A, full length (human), sequence (Q9UKJ1 20-303 S141A): as the sequence (Q9UKJ1 20-303 R72A) above, with A53R, S122A counted along it
Experiment [7] concerns the target PILRA Q140A, full length (human) (UniProt Q9UKJ1). Described as above.
Experiment [8] addresses PILRA R78 (AD protective, G78R) extracellular domain (1-196 aa) fused to murine IgG2a Fc (human) (UniProt Q9UKJ1). The experiment in a line: SPR; NPDC1-His binding to mIgG2a-tagged PILRA variants (S6C Fig); who was immobilised and the conditions not given.
Experiment [9] has as its target T1, PILRA G78 (AD risk) extracellular domain (1-196 aa) fused to murine IgG2a Fc (human, UniProt Q9UKJ1 20-196, R78G (by the check's mend)).
T1 construct: signal peptide in the construct; PILRA, human, ECD residues 1-196 of AJ400841, glycine at position 78; also called G78 PILRA-mFc; PILRA-mFC; not shown: Fc (murine IgG2a), C-terminal, kept
The experiment is described as above. Particulars: both partners purified.

Where two headings read alike, the source gives them in different places.

T1 sequence (Q9UKJ1 20-196 R78G): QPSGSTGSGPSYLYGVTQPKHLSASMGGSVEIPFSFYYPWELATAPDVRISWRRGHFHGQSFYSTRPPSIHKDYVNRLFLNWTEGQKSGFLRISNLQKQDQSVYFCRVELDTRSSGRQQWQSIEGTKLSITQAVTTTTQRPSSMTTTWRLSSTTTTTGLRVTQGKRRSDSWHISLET
PILRA F76A, full length (human), sequence (Q9UKJ1 20-303 F76A): as the sequence (Q9UKJ1 20-303 R72A) above, with A53R, F57A counted along it
PILRA Q140A, full length (human), sequence (Q9UKJ1 20-303 Q140A): as the sequence (Q9UKJ1 20-303 R72A) above, with A53R, Q121A counted along it
PILRA S80G, full length (human), sequence (Q9UKJ1 20-303 S80G): as the sequence (Q9UKJ1 20-303 R72A) above, with A53R, S61G counted along it

B1: NPDC1 extracellular domain (1-190 aa) fused to murine IgG2a Fc (Fc fusion)
chain: GHPDVAACPGSLDCALKRRARCPPGAHACGPCLQPFQEDQQGLCVPRMRRPPGGGRPQPRLEDEIDFLAQELARKESGHSTPPLPKDRQRLPEPATLGFSARGQGLELGLPSTPGTPTPTPHTSLGSPVSSDPVHMSPLEPRGGQGDGLALVLILA
Regarding B1, the percent of G78 PILRA binding is 35 % of G78 in [1]; 20 % of G78 in experiment [2]; 20 % of G78 in experiment [3]; 60 % of G78 in [4]; 44 % of G78 in [5]; 117 % of G78 in experiment [6]. The percent of G78 PILRA binding in experiment [7] is 22 % of G78.

B2: NPDC1-His (ligand, human, UniProt Q9NQX5 35-190, looked up)
chain: GHPDVAACPGSLDCALKRRARCPPGAHACGPCLQPFQEDQQGLCVPRMRRPPGGGRPQPRLEDEIDFLAQELARKESGHSTPPLPKDRQRLPEPATLGFSARGQGLELGLPSTPGTPTPTPHTSLGSPVSSDPVHMSPLEPRGGQGDGLALVLILA
notes: the construct and its limits are not described in the methods; Likely a soluble extracellular construct
In experiment [8], B2 displayed a Kd of 76.5 nM and an on-rate constant (kon) of 6800 M⁻¹ s⁻¹. Further, in experiment [9], the equilibrium dissociation constant (Kd) was 16.8 nM and the association rate constant (kon) came out at 22000 M⁻¹ s⁻¹.

By Kd is commonly meant the constant that tells how readily two partners part at equilibrium. A low value points to tighter binding. Usually kon stands for the second-order rate constant of association. Read a low kon as slow association.
